One experiment addresses DmSas4. The experiment is described as follows: co-IP, immunoblot. To be noted: reference: WT Ana2, no DmPLK4SBM-mCherry; sites S38. In general terms: Immunoblotting shows a protein as a band on a membrane.
Experiment [1] concerns the target CPAP TCP domain, 1142-1338 (UniProt Q9HC77). The experiment is described as follows: GST pull-down, immunoblot. To be noted: sites S428.
Experiment [2] deals with CPAP (UniProt Q9HC77). The experiment is described as follows: immunofluorescence co-localisation at GFP-STIL/PLK4 foci. To be noted: reference: WT Myc-GFP-STIL; sites S428.
Experiment [3] concerns the target CPAP (UniProt Q9HC77). The experiment is described as follows: GFP-binding-protein co-IP, immunoblot. To be noted: sites S428.
For experiment [4], the target named is T1, Recombinant full-length GST-STIL (WT) phosphorylated in vitro by the His-PLK4 kinase domain (human, UniProt Q15468 1-1287, phosphoserine at 428 and phosphorylation at multiple other sites (84 in vitro phosphorylation sites identified on STIL), by the 6xHis-PLK4 kinase domain).
T1 construct: STIL, human, full length; also called GST-hSTIL; phosphorylated WT GST-STIL; source: SF9 insect cells (Bac-to-Bac), purified (Glutathione Sepharose); phosphorylated on beads by 6xHis-hPlk4 (a.a. 1–416) with ATP; not shown: GST, N-terminal, kept
T1 sequence (looked up): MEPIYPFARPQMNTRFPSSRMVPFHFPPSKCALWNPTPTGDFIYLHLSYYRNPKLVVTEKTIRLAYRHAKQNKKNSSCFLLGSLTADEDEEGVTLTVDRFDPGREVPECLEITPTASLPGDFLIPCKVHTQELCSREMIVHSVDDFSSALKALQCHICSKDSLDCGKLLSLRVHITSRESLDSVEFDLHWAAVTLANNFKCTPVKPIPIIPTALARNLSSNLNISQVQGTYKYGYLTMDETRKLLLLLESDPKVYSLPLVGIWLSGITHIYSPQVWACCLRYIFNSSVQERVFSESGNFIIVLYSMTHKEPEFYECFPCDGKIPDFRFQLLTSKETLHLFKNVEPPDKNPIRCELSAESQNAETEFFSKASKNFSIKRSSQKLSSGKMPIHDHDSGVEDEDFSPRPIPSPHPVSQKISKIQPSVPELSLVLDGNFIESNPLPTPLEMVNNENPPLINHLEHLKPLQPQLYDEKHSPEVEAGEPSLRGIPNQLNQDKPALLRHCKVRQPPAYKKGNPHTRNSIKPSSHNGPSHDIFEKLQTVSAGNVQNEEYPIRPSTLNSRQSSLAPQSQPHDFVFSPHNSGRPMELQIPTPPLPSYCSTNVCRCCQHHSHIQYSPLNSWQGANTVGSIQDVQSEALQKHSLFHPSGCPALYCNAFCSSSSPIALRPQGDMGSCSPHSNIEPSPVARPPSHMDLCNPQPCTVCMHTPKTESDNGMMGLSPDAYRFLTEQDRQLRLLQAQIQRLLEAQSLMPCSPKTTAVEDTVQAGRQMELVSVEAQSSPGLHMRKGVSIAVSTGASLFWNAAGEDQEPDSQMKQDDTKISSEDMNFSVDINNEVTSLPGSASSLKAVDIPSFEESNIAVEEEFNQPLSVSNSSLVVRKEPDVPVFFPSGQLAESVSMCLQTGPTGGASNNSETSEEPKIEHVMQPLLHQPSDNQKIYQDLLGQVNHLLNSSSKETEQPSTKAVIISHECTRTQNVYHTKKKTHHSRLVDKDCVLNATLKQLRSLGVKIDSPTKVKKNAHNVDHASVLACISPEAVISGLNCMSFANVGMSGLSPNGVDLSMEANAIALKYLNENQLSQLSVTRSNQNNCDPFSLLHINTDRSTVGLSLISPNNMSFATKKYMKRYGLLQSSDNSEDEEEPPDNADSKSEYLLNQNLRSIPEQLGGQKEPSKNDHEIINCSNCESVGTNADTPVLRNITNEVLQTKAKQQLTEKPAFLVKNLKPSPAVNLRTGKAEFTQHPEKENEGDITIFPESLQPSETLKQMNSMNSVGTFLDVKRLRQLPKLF
The experiment is described as follows: pull-down; GST-hSTIL bound to GSH resin, incubated with 6xHis-hPlk4 (a.a. 1–416) with or without 10 µM ATP at 33°C for two hours, then with Flag-CPAP TCP domain for 2 hr at 4°C in 50 mM Na-HEPES pH 7.5, 400 mM NaCl, 2 mM MgCl2, 1 mM EGTA, 1 mM DTT, 0.15% Triton-X 100, 0.5 mg/ml BSA; immunoblot. To be noted: both partners purified.

Experiment [5] has as its target T2, Recombinant full-length GST-STIL S428A phosphorylated in vitro by the His-PLK4 kinase domain (human, UniProt Q15468 1-1287, S428A, phosphorylated at multiple sites by the 6xHis-PLK4 kinase domain (not at 428)).
T2 construct: STIL, human, full length; also called S428A GST-STIL; source: SF9 insect cells (Bac-to-Bac), purified (Glutathione Sepharose); phosphorylated on beads by 6xHis-hPlk4 (a.a. 1–416) with ATP; not shown: GST, N-terminal, kept
T2 sequence (looked up): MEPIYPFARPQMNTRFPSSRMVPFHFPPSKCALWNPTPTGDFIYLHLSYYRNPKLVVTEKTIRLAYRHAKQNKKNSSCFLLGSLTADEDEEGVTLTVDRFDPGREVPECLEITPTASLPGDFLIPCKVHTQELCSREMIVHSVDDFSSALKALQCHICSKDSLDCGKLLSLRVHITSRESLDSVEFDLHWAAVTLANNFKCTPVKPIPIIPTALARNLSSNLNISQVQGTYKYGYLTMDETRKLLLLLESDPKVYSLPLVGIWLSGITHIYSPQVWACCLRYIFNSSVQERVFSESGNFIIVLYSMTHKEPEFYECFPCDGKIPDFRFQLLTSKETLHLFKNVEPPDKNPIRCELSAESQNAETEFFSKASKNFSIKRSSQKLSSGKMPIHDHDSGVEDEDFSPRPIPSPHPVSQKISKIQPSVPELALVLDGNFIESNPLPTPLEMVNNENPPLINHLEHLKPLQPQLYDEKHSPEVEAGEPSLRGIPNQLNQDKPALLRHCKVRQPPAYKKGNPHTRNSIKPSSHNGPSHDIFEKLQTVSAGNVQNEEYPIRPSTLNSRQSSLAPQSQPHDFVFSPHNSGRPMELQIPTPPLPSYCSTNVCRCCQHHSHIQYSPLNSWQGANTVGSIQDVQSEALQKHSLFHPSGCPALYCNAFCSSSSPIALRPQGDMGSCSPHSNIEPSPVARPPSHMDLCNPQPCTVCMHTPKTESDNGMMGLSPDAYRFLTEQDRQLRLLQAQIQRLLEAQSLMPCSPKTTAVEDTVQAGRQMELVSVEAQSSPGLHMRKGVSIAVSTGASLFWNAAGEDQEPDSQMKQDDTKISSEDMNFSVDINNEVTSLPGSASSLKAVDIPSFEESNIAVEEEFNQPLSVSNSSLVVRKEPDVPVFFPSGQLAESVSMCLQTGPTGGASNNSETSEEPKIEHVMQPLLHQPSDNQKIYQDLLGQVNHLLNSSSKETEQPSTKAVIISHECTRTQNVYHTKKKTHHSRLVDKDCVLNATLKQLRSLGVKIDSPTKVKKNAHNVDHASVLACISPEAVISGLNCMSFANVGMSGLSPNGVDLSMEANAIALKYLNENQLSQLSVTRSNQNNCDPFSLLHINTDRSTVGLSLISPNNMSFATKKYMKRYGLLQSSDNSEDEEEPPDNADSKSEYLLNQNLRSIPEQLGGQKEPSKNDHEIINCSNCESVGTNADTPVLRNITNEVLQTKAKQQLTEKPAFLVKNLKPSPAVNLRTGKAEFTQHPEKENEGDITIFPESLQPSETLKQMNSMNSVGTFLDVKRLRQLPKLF
The description is as above. To be noted: both partners purified.

Experiment [6] deals with T3, Recombinant full-length GST-STIL S428A, not phosphorylated (human, UniProt Q15468 1-1287, S428A).
T3 construct: STIL, human, full length; also called S428A GST-STIL; source: SF9 insect cells (Bac-to-Bac), purified (Glutathione Sepharose); incubated with 6xHis-hPlk4 (a.a. 1–416) without ATP; not shown: GST, N-terminal, kept
T3 sequence (looked up): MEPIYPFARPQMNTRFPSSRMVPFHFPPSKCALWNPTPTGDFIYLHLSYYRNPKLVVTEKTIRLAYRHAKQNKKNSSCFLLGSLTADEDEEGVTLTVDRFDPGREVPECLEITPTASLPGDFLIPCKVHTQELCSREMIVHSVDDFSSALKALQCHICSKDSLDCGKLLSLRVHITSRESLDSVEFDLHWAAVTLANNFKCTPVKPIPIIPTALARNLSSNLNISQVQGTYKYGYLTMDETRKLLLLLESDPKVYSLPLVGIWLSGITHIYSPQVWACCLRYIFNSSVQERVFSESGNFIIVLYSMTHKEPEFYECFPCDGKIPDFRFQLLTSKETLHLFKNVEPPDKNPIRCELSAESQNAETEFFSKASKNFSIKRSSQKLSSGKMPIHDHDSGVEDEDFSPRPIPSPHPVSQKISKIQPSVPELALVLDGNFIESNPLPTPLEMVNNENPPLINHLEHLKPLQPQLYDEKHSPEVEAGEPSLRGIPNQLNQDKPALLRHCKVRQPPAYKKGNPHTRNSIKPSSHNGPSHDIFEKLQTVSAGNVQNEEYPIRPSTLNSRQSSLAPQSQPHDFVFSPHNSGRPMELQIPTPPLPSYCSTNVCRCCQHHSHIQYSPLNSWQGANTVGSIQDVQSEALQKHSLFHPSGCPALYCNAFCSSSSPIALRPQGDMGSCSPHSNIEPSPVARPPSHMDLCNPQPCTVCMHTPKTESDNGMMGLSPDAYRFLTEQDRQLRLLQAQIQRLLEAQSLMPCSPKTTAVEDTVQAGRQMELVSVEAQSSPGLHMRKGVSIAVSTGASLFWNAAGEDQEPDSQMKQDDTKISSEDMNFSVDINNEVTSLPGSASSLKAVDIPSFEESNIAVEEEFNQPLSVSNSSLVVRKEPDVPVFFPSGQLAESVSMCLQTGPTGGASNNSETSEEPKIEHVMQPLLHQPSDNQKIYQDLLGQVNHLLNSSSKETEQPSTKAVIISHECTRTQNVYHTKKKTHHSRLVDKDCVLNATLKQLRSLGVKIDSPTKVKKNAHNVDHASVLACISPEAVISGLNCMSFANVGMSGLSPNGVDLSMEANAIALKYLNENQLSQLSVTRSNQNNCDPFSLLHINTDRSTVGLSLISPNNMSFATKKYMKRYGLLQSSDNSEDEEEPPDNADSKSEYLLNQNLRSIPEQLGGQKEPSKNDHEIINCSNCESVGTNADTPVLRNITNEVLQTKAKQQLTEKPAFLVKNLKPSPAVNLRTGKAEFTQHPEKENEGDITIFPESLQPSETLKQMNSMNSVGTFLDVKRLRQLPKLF
The description is as above. To be noted: both partners purified.

A value given as a limit tells only on which side of the number the result lay.

Turning to Ana2 WT Ana2 + DmPLK4SBM-mCherry, in the experiment with DmSas4, the fold change is greater than 6.
In the case of “STIL (from UniProt Q15468) GST-STIL S428A, PLK4 + ATP”, in experiment [1] (reference: WT GST-STIL, PLK4 + ATP), the “binding against the reference” value is “weaker”.
Turning to “STIL (from UniProt Q15468) Myc-GFP-STIL S428A”, the other: percent reduction of CPAP at foci with CPAP [2] was greater than 90%.
In the case of “STIL (from UniProt Q15468) STIL S428A + kinase-active PLK4∆24-mCherry”, in the experiment with CPAP [3] (reference: WT STIL + kinase-active PLK4∆24-mCherry), the “binding against the reference” value is listed as “weaker”.
As to “STIL (from UniProt Q15468) WT GST-STIL + His-PLK4 kinase domain + ATP”, in experiment [1] (reference: WT GST-STIL + His-PLK4 kinase domain, no ATP), the fold change was 2.5.
On to “STIL (from UniProt Q15468) WT STIL + kinase-active PLK4∆24-mCherry”, for which, in the experiment with CPAP [3] (reference: WT STIL + kinase-dead PLK4∆24-mCherry), the fold change was greater than 7.

B1: Flag-CPAP TCP domain (aa 1142–1338) (domain or fragment, human, UniProt Q9HC77 1142-1338, looked up)
chain: EEEEDQDIQGEISHPDGKVEKVYKNGCRVILFPNGTRKEVSADGKTITVTFFNGDVKQVMPDQRVIYYYAAAQTTHTTYPEGLEVLHFSSGQIEKHYPDGRKEITFPDQTVKNLFPDGQEESIFPDGTIVRVQRDGNKLIEFNNGQRELHTAQFKRREYPDGTVKTVYANGHQETKYRSGRIRVKDKEGNVLMDTEL
notes: CPAP (CENPJ), human, TCP domain, residues 1142–1338; Expressed as GST-Flag-CPAP TCP; also called Flag-TCP domain; Flag-TCP; source: E. coli Rosetta (DE3), purified; not shown: FLAG, N-terminal, kept
In the case of B1, the “fold increase in binding, phosphorylated against unphosphorylated GST-STIL” value in experiment [4] is roughly 2.5 fold. For the same molecule, the binding result in experiment [5] and in experiment [6] was “binds” each time.

These data come from PMC6570480, “PLK4 promotes centriole duplication by phosphorylating STIL to link the procentriole cartwheel to the microtubule wall” (eLife, 2019).
